Reference: US20250262210A1 (TRUSTEES OF COLUMBIA UNIVERSITY IN THE CITY OF NEW YORK, published 2025)

How the values were obtained:
Experiment in all cases: IP/MS, LZTR1 R810W-FLAG, U87
TRAPPC11 = molecular target: T1, TRAPPC11 (human, UniProt Q7Z392 1-1133, limits assumed)
T1 sequence (looked up): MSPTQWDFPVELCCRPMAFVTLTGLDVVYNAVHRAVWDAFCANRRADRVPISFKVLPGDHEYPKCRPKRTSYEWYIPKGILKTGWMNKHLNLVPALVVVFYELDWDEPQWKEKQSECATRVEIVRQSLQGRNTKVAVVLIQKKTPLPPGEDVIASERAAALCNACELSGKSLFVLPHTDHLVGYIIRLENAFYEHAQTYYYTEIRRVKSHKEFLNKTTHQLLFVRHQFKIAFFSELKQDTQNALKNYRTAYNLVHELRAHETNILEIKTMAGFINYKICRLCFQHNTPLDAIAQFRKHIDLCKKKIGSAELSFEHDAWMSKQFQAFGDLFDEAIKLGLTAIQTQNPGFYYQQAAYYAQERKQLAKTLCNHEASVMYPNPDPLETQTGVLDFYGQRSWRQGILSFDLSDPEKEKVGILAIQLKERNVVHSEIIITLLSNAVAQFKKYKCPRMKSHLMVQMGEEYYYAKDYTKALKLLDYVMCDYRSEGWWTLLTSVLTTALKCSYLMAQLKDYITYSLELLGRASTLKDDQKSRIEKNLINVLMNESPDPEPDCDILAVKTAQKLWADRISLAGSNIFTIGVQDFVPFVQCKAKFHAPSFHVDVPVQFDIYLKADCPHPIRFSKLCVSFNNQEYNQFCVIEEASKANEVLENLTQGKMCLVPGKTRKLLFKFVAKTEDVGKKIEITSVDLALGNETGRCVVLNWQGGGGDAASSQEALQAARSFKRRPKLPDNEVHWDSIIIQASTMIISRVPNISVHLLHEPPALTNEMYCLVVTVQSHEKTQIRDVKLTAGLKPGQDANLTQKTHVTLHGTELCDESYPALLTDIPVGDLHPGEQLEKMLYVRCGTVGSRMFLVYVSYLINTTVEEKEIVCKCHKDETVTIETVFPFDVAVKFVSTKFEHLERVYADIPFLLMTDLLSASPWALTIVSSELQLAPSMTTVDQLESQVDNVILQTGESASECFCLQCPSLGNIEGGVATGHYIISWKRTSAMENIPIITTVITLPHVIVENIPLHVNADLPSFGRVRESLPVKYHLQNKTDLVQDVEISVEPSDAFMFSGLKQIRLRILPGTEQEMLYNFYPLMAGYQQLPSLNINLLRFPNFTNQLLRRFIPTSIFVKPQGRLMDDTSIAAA
In short: (§1)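 Extracted peptides in 3% acetonitrile/0.1% formic acid ran on a 50 cm C18 column into an Orbitrap Fusion, with MaxQuant identification and spectral counting.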

KNL1 = KNL1 (human, UniProt Q8NG31 1-2342, limits assumed)
KNL1, sequence (Q8NG31 whole entry): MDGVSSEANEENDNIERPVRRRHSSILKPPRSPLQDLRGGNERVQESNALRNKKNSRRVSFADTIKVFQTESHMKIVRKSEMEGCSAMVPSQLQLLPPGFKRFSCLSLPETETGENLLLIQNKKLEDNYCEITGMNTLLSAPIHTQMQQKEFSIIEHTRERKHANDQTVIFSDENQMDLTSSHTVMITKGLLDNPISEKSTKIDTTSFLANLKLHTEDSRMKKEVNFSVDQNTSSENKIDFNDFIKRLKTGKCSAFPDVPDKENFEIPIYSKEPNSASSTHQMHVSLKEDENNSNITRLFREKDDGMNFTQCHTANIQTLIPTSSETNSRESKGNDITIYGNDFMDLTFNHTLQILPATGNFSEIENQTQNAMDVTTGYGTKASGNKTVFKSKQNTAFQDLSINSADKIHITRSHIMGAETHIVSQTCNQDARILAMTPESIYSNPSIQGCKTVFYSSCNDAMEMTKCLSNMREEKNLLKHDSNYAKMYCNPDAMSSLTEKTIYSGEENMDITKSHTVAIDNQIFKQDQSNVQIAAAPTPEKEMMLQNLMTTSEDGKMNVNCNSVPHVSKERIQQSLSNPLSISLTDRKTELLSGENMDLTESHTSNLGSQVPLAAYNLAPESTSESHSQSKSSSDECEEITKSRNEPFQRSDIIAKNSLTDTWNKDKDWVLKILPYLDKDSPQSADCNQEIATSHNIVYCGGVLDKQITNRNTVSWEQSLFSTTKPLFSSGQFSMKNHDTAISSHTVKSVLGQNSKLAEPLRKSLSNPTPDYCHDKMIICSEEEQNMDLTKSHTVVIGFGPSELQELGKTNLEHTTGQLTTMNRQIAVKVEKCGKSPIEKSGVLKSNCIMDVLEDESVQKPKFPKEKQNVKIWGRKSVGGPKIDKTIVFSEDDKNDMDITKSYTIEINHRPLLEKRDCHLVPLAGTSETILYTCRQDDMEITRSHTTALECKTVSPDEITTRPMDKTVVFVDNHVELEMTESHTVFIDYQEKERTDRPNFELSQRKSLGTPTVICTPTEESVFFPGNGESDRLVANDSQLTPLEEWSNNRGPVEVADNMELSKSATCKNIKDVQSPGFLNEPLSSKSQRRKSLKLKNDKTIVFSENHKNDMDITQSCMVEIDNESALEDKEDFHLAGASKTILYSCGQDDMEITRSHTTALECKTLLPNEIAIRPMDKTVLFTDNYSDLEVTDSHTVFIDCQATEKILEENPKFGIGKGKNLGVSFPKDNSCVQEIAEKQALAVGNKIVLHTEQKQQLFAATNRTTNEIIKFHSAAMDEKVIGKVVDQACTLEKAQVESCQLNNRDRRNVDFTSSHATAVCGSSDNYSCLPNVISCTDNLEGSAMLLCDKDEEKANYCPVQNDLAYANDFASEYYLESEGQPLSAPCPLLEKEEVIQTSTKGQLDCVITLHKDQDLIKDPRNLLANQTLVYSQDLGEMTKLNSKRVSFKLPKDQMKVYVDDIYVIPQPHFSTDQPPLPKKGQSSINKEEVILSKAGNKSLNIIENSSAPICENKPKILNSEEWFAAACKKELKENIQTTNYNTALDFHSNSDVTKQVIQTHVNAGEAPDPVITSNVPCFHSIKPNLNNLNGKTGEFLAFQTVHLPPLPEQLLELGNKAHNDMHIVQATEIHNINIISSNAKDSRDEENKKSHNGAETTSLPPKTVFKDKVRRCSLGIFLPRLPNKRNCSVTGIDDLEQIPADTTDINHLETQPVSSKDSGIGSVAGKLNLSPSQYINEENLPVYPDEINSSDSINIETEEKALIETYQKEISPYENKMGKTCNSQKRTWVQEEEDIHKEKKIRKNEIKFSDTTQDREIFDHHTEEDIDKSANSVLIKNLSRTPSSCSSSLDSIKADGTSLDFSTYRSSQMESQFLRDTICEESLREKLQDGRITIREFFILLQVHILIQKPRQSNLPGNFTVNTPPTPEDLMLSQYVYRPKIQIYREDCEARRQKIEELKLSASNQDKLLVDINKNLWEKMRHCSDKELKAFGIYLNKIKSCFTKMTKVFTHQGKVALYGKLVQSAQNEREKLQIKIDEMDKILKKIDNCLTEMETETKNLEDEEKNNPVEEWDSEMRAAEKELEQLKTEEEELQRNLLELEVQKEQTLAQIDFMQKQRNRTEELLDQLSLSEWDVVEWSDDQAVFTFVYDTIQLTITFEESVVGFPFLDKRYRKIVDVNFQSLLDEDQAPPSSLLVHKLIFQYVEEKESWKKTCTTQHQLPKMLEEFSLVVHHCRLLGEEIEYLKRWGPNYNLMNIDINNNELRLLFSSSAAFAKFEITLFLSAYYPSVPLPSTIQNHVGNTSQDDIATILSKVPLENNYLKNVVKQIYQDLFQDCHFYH
In short: as §1

BRCA2 = BRCA2 (human, UniProt P51587 1-3418)
In short: as §1

Measured: binding result

B1: LZTR1 R810W-FLAG (other, human, UniProt Q8N653 1-840, looked up)
chain: MAGPGSTGGQIGAAALAGGARSKVAPSVDFDHSCSDSVEYLTLNFGPFETVHRWRRLPPCDEFVGARRSKHTVVAYKDAIYVFGGDNGKTMLNDLLRFDVKDCSWCRAFTTGTPPAPRYHHSAVVYGSSMFVFGGYTGDIYSNSNLKNKNDLFEYKFATGQWTEWKIEGRLPVARSAHGATVYSDKLWIFAGYDGNARLNDMWTIGLQDRELTCWEEVAQSGEIPPSCCNFPVAVCRDKMFVFSGQSGAKITNNLFQFEFKDKTWTRIPTEHLLRGSPPPPQRRYGHTMVAFDRHLYVFGGAADNTLPNELHCYDVDFQTWEVVQPSSDSEVGGAEVPERACASEEVPTLTYEERVGFKKSRDVFGLDFGTTSAKQPTQPASELPSGRLFHAAAVISDAMYIFGGTVDNNIRSGEMYRFQFSCYPKCTLHEDYGRLWESRQFCDVEFVLGEKEECVQGHVAIVTARSRWLRRKITQARERLAQKLEQEAAPVPREAPGVAAGGARPPLLHVAIREAEARPFEVLMQFLYTDKIKYPRKGHVEDVLLIMDVYKLALSFQLCRLEQLCRQYIEASVDLQNVLVVCESAARLQLSQLKEHCLNFVVKESHFNQVIMMKEFERLSSPLIVEIVRRKQQPPPRTPLDQPVDIGTSLIQDMKAYLEGAGAEFCDITLLLDGHPRPAHKAILAARSSYFEAMFRSFMPEDGQVNISIGEMVPSRQAFESMLRYIYYGEVNMPPEDSLYLFAAPYYYGFYNNRLQAYCKQNLEMNVTVQNVLQILEAADKTQALDMKRHCLHIIVHQFTKVSKLPTLWSLSQQLLLDIIDSLASHISDKQCAELGADI
notes: Stably expressed in U87 cells by lentivirus; also called LZTR1-FLAG-R810W; LZTR1 RW; not shown: FLAG tag
binds: all assays above
